Test results as given in paper PMC10201449, “Structures, activity and mechanism of the Type IIS restriction endonuclease PaqCI”.

Assays:
[1] = target: PaqCI, Type IIS restriction endonuclease of Paucibacter aquatile (Paucibacter aquatile); test: cryo-EM structure; DNA-free PaqCI, 0.1-0.4 mg/ml; 3.0 Å global resolution map, no symmetry imposed; crystallographic model docked
[2] = target: PaqCI, Type IIS restriction endonuclease of Paucibacter aquatile (Paucibacter aquatile); test: cryo-EM structure; PaqCI with 50 bp DNA duplex (1:1.2 molar ratio) in 10 mM calcium chloride, SEC peak in 30 mM BisTris pH 6.5, 100 mM sodium chloride; 3.15 Å map, no symmetry imposed
[3] = target: PaqCI, Type IIS restriction endonuclease of Paucibacter aquatile (Paucibacter aquatile); test: SEC; DNA-free PaqCI on Superdex 200 10/300 GL; 20 mM HEPES pH 7.5, 150 mM sodium chloride, 5 mM magnesium chloride, 1 mM DTT
[4] = target: PaqCI, Type IIS restriction endonuclease of Paucibacter aquatile (Paucibacter aquatile); test: crystal structure; DNA-free apo-enzyme; 20 to 25% PEG 3350, 0.2 M magnesium chloride, 0.1 M Bis-Tris pH 5.5; 2.5 Å; two subunits in the asymmetric unit, tetramer by a crystallographic two-fold axis
[5] = target: T1, PaqCI Type IIS restriction endonuclease (Paucibacter aquatile, UniProt A0A2N8KYF9 1-510); test: SEC co-elution; 10 mM Ca2+; 1:1.2 protein monomer:DNA; SEC/cryo-EM: 30 mM BisTris pH 6.5, 100 mM NaCl; complex formed with 10 mM CaCl2; temperature not stated; conditions: protein: recombinant; tags: none (untagged); chain copies: 4; 50 complementary bp; four duplexes per tetramer
T1 sequence: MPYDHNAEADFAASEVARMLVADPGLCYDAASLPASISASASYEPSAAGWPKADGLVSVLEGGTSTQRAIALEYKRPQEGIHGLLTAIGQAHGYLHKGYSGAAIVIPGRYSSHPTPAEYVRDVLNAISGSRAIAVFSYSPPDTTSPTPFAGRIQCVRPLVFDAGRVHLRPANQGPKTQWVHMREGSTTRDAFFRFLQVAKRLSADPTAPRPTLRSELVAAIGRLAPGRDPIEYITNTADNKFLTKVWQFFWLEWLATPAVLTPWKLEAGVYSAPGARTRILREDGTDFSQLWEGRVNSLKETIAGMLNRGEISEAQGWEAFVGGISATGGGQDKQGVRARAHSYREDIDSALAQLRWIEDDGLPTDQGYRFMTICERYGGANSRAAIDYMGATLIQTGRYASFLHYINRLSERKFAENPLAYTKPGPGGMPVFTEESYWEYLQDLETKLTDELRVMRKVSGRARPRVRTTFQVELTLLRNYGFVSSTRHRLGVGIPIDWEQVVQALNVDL

Molecule “PaqCI, Type IIS restriction endonuclease of Paucibacter aquatile (enzyme)” has a stoichiometry N [1] of 4, a stoichiometry N [2] of 4 and a stoichiometry N [3] of 4. The stoichiometry N [4] was 4.

B1: 50 bp PaqCI target duplex (dsDNA)
DNA 1: CCAGTCGGGATCAGCTCTCTTTCTTCCCACCTGCGCCACGCGAGGTACTC
DNA 2: GAGTACCTCGCGTGGCGCAGGTGGGAAGAAAGAGAGCTGATCCCGACTGG
B1: binds [5].
